IC50 and Kd data for one molecule are collected here from article doi:10.1101/524447 (bioRxiv, 2019).

Non-standard residues stand in square brackets, D forms with d. No end group written: not given here. pY = N[C@@H](Cc1ccc(OP(=O)(O)O)cc1)C(=O)O

In assay [1] the target is T1, Syk tandem SH2 (tSH2) fragment, amino acids 9-264 (UniProt P43405 9-264). Kind of assay: SPR.
Assay [2] deals with T1, Syk tandem SH2 (tSH2) fragment, amino …. The assay can be described thus: thermal shift assay.

Usually IC50 stands for the concentration at which inhibition is half-maximal. Usually Kd stands for the constant that tells how readily two partners part at equilibrium. For NPD[pY]EPIRKGQRDL[pY]SGLNQR [pITAM peptide from CD3ε chain, doubly phosphorylated], the IC50 in assay [1] was 15 µM. Besides, the equilibrium dissociation constant (Kd) in assay [2] stood at 4.2 ± 0.68 µM.
